# In the nanobody polyreactivity screen of Harvey et al. (2022):
# Assay: yeast display, Sf9 membrane polyspecificity reagent, FACS + sequencing; frameworks hold sequencing errors
# In short: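 Galactose-induced (36–48 hours) yeast carrying a synthetic nanobody display library were exposed to 10% biotinylated, detergent-solubilized Sf9 membrane reagent at 4 °C for 1 hour. FACS followed streptavidin microbead enrichment, using low and high (top ~1%) gates for expression (anti-HA) and reagent binding (streptavidin). Colony PCR, MiSeq 2 × 250 sequencing and CDR-length filtering followed. Labels for polyreactivity reflect the gate of origin.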
row,Sequence,polyreactivity (PSR sort gate)
1,QVQLVESGGGLVQAGGSLRLSCAASGSISADYVMGWYRQAPGKDRELVAAISVSAGTTYYADSVKGRFTISRDNAKNTVYLQMNSLKPEDTAVYYCAATDSYYWLYYYGYSPGNDYWGQGTQVTVSS,low polyreactivity
2,QVQLVESGGGLVQAGGSLRLSCAASGSISDVYAMGSYRQAPGKETELVAAITSGASTYYADSVKGRFTISRDNAKNTVYLQMNSLKPEDTAVYYCAADSDSQWGMDYWGQGTQVTVSS,low polyreactivity
3,QVQLVESGGGLVQAGGSLRLSCAASGSISFLYTMGWYRQAPGKERELVAAITGSTASTYYADSVKGCFTISRDNAKNTVYLQMNSLKPEDTAVYYCAAYWYAEGYWVSRDYWGQGTQVTVSS,low polyreactivity
4,QVQLVESGGGLVQAGGSLRLSCAASGSISGSYAMGWYRQAPGKERELVASITTSGGGTYYADSVKGRFTISRDNAKNTVYLQMNSLKPEDTAVYYCAVEYGYPYAGLDYWGQGTQVTVSS,low polyreactivity
5,QVQLVESGGGLVQAGGSLRLSCAASGSISGYYARGWYRQAPGKERELVASIRYTGARTYYADSVKGRFTISRDNAKYTVYVQMNSLKPEDTAVYYCAATEFTYYYSYDYWGQGTLVTVSS,low polyreactivity
6,QVQLVESGGGLVQAGGSLRLSCAASGSISIQYVMGWYRPAPGKERELVAAIRVIGGSTSYADSVKGRFTISRDNAKNTVYLQMNSLKPEDTAVYYCAADWAWTISDGYYYGYPQYDYWGQGTQVTVSS,high polyreactivity
7,QVQLVESGGGLVQAGGSLRLSCAASGSISPQNVMGWYRQAPGKERELVAAITGGGSTNYADSVKGRFTISRDNAKNTVYLQMNSLKPEDTAVYYCNADYFQDRLDYWGHGTQVTVSS,low polyreactivity
8,QVQLVESGGGLVQAGGSLRLSCAASGSISPWYAMGWYRQAPGKERELVAAIRGNGGSTYYADSVKGRFTISRDNAKNTVYLQMNSLKPEDTAVYYCNAVYRRPIFYYWGQGTQVTVSS,low polyreactivity
9,QVQLVESGGGLVQAGGSLRLSCAASGSISPYNAKGWYRQAPGKERELVAAISSGGRTYYAVSVKGRFTISRDNAKNTVYLQMNSLKPEDTAVYYCNKYPLRPYRGLGVYYRSDYWGQGTQVTVSS,high polyreactivity
10,QVQLVESGGGLVQAGGSLRLSCAASGSISPYNAMGWYRQAPGKERELVAAISSGGRTYYADSVKGRFTISRDNAKNTVYLQMNSLKPEDTAVYYCARGYWRVYGYSFWYTPEVGYWGQGTQVTVSS,high polyreactivity
11,QVQLVESGGGLVQAGGSLRLSCAASGSISPYYAMGWYRQEHGKEREMVAAISSGGSTYYADSVKGRFTISRDNAKNTVYLQMNSLKPEDTAVYYCAKAYNYLGYYKYLRYGKFCYWGEGTQVTVSS,high polyreactivity
12,QVQLVESGGGLVQAGGSLRLSCAASGSISSAYGMGWYIQAPGKERELVATITSGGSTNYADSVKGRFTISRDNAKNTVYLQMNSLTPEDTAVYYCAVDRYALYSGGDYWGQGTQVTVSS,low polyreactivity
13,QVQLVESGGGLVQAGGSLRLSCAASGSISSNAMGWYRQAPGKERELVAAISGSVGSTYYADSVKGRFTISRDNAKNTVYLQMNSLKREDTAVYYCAADAEAGRYVYGASSELGYDYWGQGTQVTVSS,low polyreactivity
14,QVQLVESGGGLVQAGGSLRLSCAASGSISSQYGMGWYRQAAGKERDLVATIRDGGRTNYADSVKGRFTISRDNGKNTVYLQMNSLKPEDTAVYYCAALYWYYYTWPLYDYWVQGTQVTVSS,low polyreactivity
15,QVQLVESGGGLVQAGGSLRLSCAASGSISVANAMGWYRQAPGKERELVAAITDSGDDTYYADSVKGRFTISRDNAKNTVYLQMNSLKPEDTAVYYCAVEAWSVPPYDYWGQGTQVTVSS,low polyreactivity
16,QVQLVESGGGLVQAGGSLRLSCAASGSISVWYVMGWYRQAPGKERELVAAITRSGGSTFYADSVKGRLTISRDNAKNTVYLQMNSLKPEDTAVYYCAADVGVAWGYGYWGQGTQVTVSS,low polyreactivity
17,QVQLVESGGGLVQAGGSLRLSCAASGSISYFNAMGWYRQAPGKERELVAAITSGGSTYYADSVKGRFTISRDNAKNTVYLQMNSLKPEDTAVYYCNAPLEWGVYAAQNWDDGYWGQGTQVTVSS,low polyreactivity
18,QVQLVESGGGLVQAGGSLRLSCAASGSISYRYAMGWYRQAPGKERELVAAISYRGGTTYYADSVKGRFTISRDNAKNTVYLQMNSLKPEDTAVYYCADDFFGSSYPFYYWGQGTQVTVSS,high polyreactivity
19,QVQLVESGGGLVQAGGSLRLSCAASGSISYSYAMGWYRQAPGKERELVAAISWRGVSTYYADSVKGRFTISRDNAKNTVYLQMNSLKPEDTAVYYCNAVHHYPEHIGGGYWGQGTQVTVSS,low polyreactivity
20,QVQLVESGGGLVQAGGSLRLSCAASGSISYYAMGWYRQAPGKEMELVAAISQSGGSTYYADSVKGRFTISRDNAKNTVYLQMNSLKPEDTAVYYCAAKSPYSSYYPYGYWGQGTQVTVSS,high polyreactivity
21,QVQLVESGGGLVQAGGSLRLSCAASGSISYYNAMGWYRQAPGKERELVATITDSGGSTYYADSVKGRFTISRDNAKNTVYLQMNSLKPEDTAVYYCAVDYSEWYSIYDYWGQGTQVTVSS,low polyreactivity

row,Sequence,polyreactivity (PSR sort gate)
1,QVQLVESGGGLVQAGGSLRLSCAASGSISYYNAMGWYRQAPGKERELVATITDSGGSTYYADSVKGRFTISRDNAKNTVYLQMNSLKPEDTAVYYCNADYWAVNYDYWGQGSQVTVSS,low polyreactivity
2,QVQLVESGGGLVQAGGSLRLSCAASGSIVRFYAMGWYRQAPGKERELVASITSGGSTNYADSVKGRFTISRDNAKNTVYLQMNSLKPEDTAVYYCAVRLKGYRRRDYWGQGTQVTVSS,high polyreactivity
3,QVQLVESGGGLVQAGGSLRLSCAASGSIVRSYAMGWYRQAPGKERELVAAITGGANTYYADSVKGRFTISRDNAKNTVYLQMNSLKPEDTAVYYCAASPIQTGSIFSTFYSYRSYYWGQGTQVTVSS,high polyreactivity
4,QVQLVESGGGLVQAGGSLRLSCAASGSIVSYYAMGWYRQAPGIERELVAAITTRGGRSYYADSVMGRFTISRDYAKNTVYLPMNSLKPEDTAVYYFNRYPGYIQGDYDYWGQGTQVTVSS,high polyreactivity
5,QVQLVESGGGLVQAGGSLRLSCAASGSIVVHNAMGWYRQAPGKERELVAAITWSGGSTYYADSVKGRFTISRDNAKNTVYLQMNSLKPVDTAVYYCAAEDVAAQWAYESPTSYWYYYWGQGTQVTVSS,low polyreactivity
6,QVQLVESGGGLVQAGGSLRLSCAASGSIVVVYDKGWYRQAPGKERELVAAISRRGGNTYYADSVKGRFTISRDNAKNTVYLQMNSLKPEDTAVYYCNAVRTRKAFDYWGQGTQVTVSS,low polyreactivity
7,QVQLVESGGGLVQAGGSLRLSCAASGSIVYRYSMGWYRQAPGKERELVAGITFGAGTYYADSVKGRFTISRDNAKNTVYLQMNSLKPEDTAVYYCNAIHLPRHRDYWGQGTQVTVSS,low polyreactivity
8,QVQLVESGGGLVQAGGSLRLSCAASGSIWHKAMGWYRQAPGKERELVASSTNYADSVKGRITISRDNAKNTVYLQMNSLKPEDTAVYYCALEQGVNRNHDYWGQGTQVTVSS,low polyreactivity
9,QVQLVESGGGLVQAGGSLRLSCAASGSIWYYAMGWYRQAPWTERELVAAIRRGGSTYYADYVKGRFTISRDNAKNTVYVQMNSMKPEDTAVYYCAASWNYYKLDYWGQGTQVTVSS,high polyreactivity
10,QVQLVESGGGLVQAGGSLRLSCAASGSIYDIYAMGWYGQAPGKERELVAAIRSGDRTHYADSVKGRFTISRDNAKNTVYLQMNSLKPEDTAVYYCAADRYIYLNREHDYWGQGTQVTVSS,low polyreactivity
11,QVQLVESGGGLVQAGGSLRLSCAASGSIYDWYSMGWNIQAPGKERELVAAISSGDSTYYADSVKGRFTISRDNAKNTVYLQMNSLKPEDTAVYYCAAVTKLSGIRYNYWGQGTQVTVSS,low polyreactivity
12,QVQLVESGGGLVQAGGSLRLSCAASGSIYESYAMGWYRQAPGKERELVADITYDGGITYYADSVKGRFTISRDNAKNTVYLQMNSLKPEDTAVYYCATEYRYWLSDYSTYFPYDYWGQGSQVTVSS,low polyreactivity
13,QVQLVESGGGLVQAGGSLRLSCAASGSIYPGNAMGWYRQAPGKERELVAVIDFSGASTYYADSVKGRFTISRDNAKNTVYLQMNSLKPEDTADYWGQGTQVTVSS,low polyreactivity
14,QVQLVESGGGLVQAGGSLRLSCAASGSIYVPNDMGWYRQAPGKEREFVAAITESDGSTYYADSVKGRFTISRDNAKNTVYLQMNSLKPEDTAVYYCATDSTGVTIVHFDYWGQGTQVTVSS,low polyreactivity
15,QVQLVESGGGLVQAGGSLRLSCAASGSIYVSYAMGWYRQAPGKERELVATITTSTGSTYADSVKGRFTISRDNAKNTVYLQMNSLKPEDTAVYYCAARYQPWLNDDFDSWGQGTQVTVSS,low polyreactivity
16,QVQLVESGGGLVQAGGSLRLSCAASGSIYVYYAKGWYRQAPGKERYLVAAINTSGGSTYYADSVKGRFTISRDNAKNTVYLQMNSLKPEDTAVYYCAATPFASPRLHSFVVSYRYYYWGQGTQVTVSS,low polyreactivity
17,QVQLVESGGGLVQAGGSLRLSCAASGSIYYNAMGWYRQAPGKERELVAAISTSGGTTYYADSVKGRFTISRDNAKNTVYLQMNSLKPEDTAVYYCNARPSRRGAFDYWGQGTQVTVSS,high polyreactivity
18,QVQLVESGGGLVQAGGSLRLSCAASGSLFGANAMGWYRQAPGKERELVAAISSNGDDTYADSVKGRFTISRDNAKNTVYLQMNSLKPEDTAVYYCNKRPWWWGGDDYWGQGTQVTVSS,low polyreactivity
19,QVQLVESGGGLVQAGGSLRLSCAASGSLFPHYAMGWNRQAPGKEREFVATISGSTGRTYYADSVKGRFTISRDNAKNTVYLQMNSLKPEDTAVYYCATSVGYYLPPIKYDYWGQGTQVTVSS,low polyreactivity
20,QVQLVESGGGLVQAGGSLRLSCAASGSLFRSYAMGWYRQAPGKERELVAAISTRVVNTYYADSVKGRFTISRDNAKNTVYLQMNSLKPEDTAVYYCAALRYRITNVYYWGQGTQVTVSS,high polyreactivity
